Measurements published in patent US20220396813.

Columns and labels:
Assay in all cases: cell_activity
[1] = test system: T1, Rec22 WP_016392893.1 (Pseudomonas plecoglossicida); details: HEK293T inversion; background 1.66
T1 sequence: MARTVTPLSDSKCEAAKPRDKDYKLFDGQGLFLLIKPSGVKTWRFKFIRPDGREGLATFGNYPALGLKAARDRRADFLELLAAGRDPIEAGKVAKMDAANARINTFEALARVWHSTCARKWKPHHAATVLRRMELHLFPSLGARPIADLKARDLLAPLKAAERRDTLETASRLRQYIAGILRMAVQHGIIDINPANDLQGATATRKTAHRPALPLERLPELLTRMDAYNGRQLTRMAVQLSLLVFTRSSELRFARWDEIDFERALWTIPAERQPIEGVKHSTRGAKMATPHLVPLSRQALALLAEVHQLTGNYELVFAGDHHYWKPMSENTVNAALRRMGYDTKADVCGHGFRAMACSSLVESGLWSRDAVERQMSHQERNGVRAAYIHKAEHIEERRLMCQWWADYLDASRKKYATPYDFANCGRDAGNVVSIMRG

[2] = test system: T2, Rec24 WP_046407494.1 (Sphingomonas sp.); details: HEK293T inversion; background 2.34
T2 sequence: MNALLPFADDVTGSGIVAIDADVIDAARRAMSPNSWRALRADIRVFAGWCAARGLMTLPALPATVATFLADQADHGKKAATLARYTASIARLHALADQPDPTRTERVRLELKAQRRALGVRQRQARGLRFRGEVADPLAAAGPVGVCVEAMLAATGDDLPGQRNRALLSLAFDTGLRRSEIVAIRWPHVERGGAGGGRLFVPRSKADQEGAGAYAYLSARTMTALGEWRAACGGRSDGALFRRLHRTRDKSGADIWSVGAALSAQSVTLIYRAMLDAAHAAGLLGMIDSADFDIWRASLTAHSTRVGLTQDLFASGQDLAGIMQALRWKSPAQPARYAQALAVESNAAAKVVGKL

[3] = test system: T3, Rec21 WP_010365336.1 (Pseudoalteromonas citrea); details: HEK293T inversion; background 4.91
T3 sequence: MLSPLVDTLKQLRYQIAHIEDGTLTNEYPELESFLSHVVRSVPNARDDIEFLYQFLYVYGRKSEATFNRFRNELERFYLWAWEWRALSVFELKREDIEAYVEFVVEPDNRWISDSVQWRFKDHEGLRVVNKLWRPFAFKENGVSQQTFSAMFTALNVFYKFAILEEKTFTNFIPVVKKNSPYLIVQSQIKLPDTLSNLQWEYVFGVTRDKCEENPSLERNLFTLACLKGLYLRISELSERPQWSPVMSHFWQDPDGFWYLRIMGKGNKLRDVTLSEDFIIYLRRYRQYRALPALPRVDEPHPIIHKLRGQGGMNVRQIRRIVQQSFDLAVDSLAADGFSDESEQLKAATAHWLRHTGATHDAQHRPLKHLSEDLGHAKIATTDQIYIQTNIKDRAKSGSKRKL

[4] = test system: T4, Rec18 WP_007635552.1 (Paraglaciecola psychrophila); details: HEK293T inversion; background 1.255
T4 sequence: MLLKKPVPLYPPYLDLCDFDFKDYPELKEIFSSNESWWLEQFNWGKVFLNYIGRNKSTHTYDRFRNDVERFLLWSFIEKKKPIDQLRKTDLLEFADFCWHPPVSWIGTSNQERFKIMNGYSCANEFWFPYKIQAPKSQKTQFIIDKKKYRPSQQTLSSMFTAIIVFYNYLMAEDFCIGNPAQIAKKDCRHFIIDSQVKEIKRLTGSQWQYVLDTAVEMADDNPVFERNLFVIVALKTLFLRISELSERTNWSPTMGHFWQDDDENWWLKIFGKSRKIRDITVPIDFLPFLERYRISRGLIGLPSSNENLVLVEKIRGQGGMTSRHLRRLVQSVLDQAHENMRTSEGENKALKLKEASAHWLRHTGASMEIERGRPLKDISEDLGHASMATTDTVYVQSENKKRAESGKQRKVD

## GACCACTCCAGANNNNNNNNNTCTGGAGTGGTG (double strand) [Rec22 natural site]
[1]
  activity: 1.45 % GFP+

## GCACTAGCGATANNNNNNNNTATCACTAGTGC (double strand) [Rec24 natural site]
[2]
  activity: 17.1 % GFP+

## TAATGTCCAATANNNNNNNNTATCGGACATAA (double strand) [Rec21 natural site]
[3]
  activity: 4.75 % GFP+

## TTATGTCCAATANNNNNNNNTATTGGACATAG (double strand) [Rec17-18 natural site]
[4]
  activity: 0.202 % GFP+
